{"source": "patent US20030143665A1", "about": "(NEW YORK UNIVERSITY, published 2003)", "binders": {"B1": {"name": "α-latrotoxin (ligand)", "chain": "EGEDLTLEEKAEICSELELQQKYVDIASNIIGDLSSLPIAGKIAGTIAAAAMTATHVASGRLDIEQTLLGCSDLPFDQIKEVLENRFNEIDRKLDSHSAALEEITKLVEKSISVVEKTRKQMNKRFDEVMKSIQDAKVSPIISKINNFARYFDTEKERIRGLKLNDYILKLEEPNGILLHFKESRTPTDDSLQAPLFSIIEEGYAVPKSIDDELAFKVLYALLYGTQTYVSVMFFLLEQYSFLANHYYEKGYLEKYDEYFNSLNNVFLDFKSSLVGTGTSNNEGLLDRVLQVLMTVKNSEFLGLEKNGVDEMLNEKINLFNKIKEEIEGKQKMTLSETPENFAQISFDKDITTPIGDWRDGREVRYAVQYASETLFSKISHWSDPVSVREKACPTLRMPVDQTRRNVLVFRKFDSSKPQLVGEITPYLSNFIDIDRDLYNAASNPDSAVGFKEFTKLNYDGANIRATFDHGRTVFHAAAKSGNDKIMFGLTFLAKSTELNQPDKKGYTPIHVAADSGNAGIVNLLIQRGVSINSKTYHFLQTPLHLAAQRGFVTTFQRLMESPEININERDKDGFTPLHYAIRGGERILEAFLNQISIDVNAKSNTGLTPFHLAIIKNDWPVASTLLGSKKVDINAVDENNITALHYAAILGYLETTKQLINLKEINANVVSSPGLLSALHYAILYKHDDVASFLMRSSNVNVNLKALGGITPLHLAVIQGRKQILSLMFDIGVNIEQKTDEKYTPLHLAAMSKYPELIQILLDQGSNFEAKTNSGATPLHLATFKGKSQAALILLNNEVNWRDTDENGQMPIHGAAMTGLLDVAQAIISIDATVVDIEDKNSDTPLNLAAQNSHIDVIKYFIDQGADINTRNKKGLAPLLAFSKKGNLDMVKYLFDKNANVYIADNDGMNFFYYAVQNGHLNIVKYAMSEKDKFEWSNTDNNRRDECPNEECAISHFAVCDAVQFDRIEIVKYFVGTLGNFAICGPLHQAARYGHLDIVKYLVEEEFLSVDGSKTDTPLCYASENGHFTVVQYLVSNGAKVNHDCGNGMTAIDKAITKNHLQVVQFLAANGVDFRRKNSRGTTPFLTAVAENALHIAEYLIREKRQDININEQNVDKDTALHLAVYYKNLQMIKLLIKYGIDVTIRNAYDKTALDIAIDAKFSNIVEYLKTKSGKFRR", "modifications": "125I label (chloramine T procedure) in the binding and immunoprecipitation assays; coupled to Sepharose in the affinity chromatography"}}, "key": {"[1]": {"target": "T1, native CIRL of rat brain (calcium-independent α-latrotoxin binding sites in rat brain membranes); affinity … (rat, UniProt O88917 22-1515)", "T1 sequence": "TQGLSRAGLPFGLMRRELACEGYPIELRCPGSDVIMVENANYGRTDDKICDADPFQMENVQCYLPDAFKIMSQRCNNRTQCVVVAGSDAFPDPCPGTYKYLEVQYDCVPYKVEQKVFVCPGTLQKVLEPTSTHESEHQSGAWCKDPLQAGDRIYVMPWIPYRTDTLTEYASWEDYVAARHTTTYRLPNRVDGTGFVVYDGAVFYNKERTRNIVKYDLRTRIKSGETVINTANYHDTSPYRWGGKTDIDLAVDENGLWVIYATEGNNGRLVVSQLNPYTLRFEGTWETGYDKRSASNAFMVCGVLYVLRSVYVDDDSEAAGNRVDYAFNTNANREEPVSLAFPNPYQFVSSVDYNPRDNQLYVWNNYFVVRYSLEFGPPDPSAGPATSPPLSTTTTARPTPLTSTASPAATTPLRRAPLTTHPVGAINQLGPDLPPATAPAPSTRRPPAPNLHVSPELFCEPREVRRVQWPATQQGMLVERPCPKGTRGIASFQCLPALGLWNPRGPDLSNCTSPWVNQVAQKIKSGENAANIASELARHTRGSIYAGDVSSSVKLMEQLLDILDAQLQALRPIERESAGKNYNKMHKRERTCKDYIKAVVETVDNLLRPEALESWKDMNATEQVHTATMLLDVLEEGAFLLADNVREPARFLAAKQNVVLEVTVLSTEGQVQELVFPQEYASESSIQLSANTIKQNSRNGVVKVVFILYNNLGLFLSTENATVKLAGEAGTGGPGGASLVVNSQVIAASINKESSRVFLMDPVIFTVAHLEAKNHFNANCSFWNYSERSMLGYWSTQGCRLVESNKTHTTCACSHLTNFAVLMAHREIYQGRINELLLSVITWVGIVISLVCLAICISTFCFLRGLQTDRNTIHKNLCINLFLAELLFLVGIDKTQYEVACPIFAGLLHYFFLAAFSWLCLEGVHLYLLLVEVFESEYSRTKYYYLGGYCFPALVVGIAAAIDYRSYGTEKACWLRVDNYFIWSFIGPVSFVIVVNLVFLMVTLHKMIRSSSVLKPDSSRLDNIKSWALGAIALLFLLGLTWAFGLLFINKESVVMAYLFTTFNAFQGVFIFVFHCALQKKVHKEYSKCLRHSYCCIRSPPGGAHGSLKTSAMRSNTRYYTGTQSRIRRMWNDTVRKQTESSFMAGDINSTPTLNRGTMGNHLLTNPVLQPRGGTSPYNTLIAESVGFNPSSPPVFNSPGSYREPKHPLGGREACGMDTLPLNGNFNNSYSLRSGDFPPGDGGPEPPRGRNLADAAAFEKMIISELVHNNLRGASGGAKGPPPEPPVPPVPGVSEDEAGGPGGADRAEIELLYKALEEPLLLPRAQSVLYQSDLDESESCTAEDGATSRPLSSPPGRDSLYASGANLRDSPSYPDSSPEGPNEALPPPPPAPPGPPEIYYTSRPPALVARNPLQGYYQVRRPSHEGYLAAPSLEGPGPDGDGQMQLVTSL"}, "[2]": {"target": "T2, recombinant CIRL (calcium-independent receptor of α-latrotoxin), full-length, expressed in COS cells (rat, UniProt O88917 22-1515)", "T2 sequence": "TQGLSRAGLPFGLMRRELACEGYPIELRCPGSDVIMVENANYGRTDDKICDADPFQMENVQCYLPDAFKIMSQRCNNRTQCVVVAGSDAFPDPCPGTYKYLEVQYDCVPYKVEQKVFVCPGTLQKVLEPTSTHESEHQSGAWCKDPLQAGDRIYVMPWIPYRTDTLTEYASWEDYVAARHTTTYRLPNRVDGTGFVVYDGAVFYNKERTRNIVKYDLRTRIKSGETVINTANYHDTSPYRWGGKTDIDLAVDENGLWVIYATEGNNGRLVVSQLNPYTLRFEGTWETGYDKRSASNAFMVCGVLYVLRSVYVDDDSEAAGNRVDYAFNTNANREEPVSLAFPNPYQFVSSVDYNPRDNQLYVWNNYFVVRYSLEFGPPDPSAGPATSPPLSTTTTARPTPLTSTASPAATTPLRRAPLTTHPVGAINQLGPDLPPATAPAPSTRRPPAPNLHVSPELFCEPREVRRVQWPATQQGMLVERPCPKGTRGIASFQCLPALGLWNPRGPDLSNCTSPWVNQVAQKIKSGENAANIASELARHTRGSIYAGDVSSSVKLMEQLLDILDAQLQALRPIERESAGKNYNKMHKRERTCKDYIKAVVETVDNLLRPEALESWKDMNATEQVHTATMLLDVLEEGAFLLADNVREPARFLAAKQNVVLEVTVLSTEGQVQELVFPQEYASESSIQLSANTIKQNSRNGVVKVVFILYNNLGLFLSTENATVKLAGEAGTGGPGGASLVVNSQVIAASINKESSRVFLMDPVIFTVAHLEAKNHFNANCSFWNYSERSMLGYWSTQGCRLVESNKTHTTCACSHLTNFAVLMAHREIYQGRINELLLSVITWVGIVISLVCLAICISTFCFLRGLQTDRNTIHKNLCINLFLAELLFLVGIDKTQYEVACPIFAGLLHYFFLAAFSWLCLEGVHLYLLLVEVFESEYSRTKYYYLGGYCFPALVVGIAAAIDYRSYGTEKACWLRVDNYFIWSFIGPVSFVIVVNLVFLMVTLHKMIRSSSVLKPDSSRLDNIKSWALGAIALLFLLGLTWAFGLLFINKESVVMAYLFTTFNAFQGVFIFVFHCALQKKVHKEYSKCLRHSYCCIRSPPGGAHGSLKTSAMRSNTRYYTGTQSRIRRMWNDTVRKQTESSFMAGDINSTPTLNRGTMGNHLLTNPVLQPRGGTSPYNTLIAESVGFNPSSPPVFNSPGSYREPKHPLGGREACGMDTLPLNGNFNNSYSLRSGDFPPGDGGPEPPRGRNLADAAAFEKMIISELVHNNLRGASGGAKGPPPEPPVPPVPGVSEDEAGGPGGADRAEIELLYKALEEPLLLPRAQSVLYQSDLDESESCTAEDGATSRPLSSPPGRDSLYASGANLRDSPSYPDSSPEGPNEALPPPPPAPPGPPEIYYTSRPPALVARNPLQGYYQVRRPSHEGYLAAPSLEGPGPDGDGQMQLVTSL"}}, "data": [{"binder": "B1", "values": [{"measurement": "Kd", "setting": "[1]", "result": 0.28, "unit": "nM"}, {"measurement": "Kd", "setting": "[2]", "result": 0.16, "unit": "nM"}]}]}
